Measurements from paper PMC9784577, “Cross-Feeding and Enzymatic Catabolism for Mannan-Oligosaccharide Utilization by the Butyrate-Producing Gut Bacterium Roseburia hominis A2-183” (Microorganisms, 2022).

Experiments:
[1] = target: β-1,4 mannan-oligosaccharide phosphorylase RhMOP130A (Roseburia hominis A2-183); assay: native gel or EMSA; native-PAGE on 4-15% Mini-PROTEAN TGX precast gels, 30 min at 150 V, Native PAGE marker; size of the oligomer from the band's apparent mass against the monomer's mass
[2] = target: α-galactosidase RhGal36A (Roseburia hominis A2-183); assay: as above

Substance	stoichiometry N [1]	stoichiometry N [2]
β-1,4 mannan-oligosaccharide phosphorylase RhMOP130A (enzyme)	6	
α-galactosidase RhGal36A (enzyme)		4
